Test results reported in the supplement of paper PMC10567573.
± gives the standard deviation.

Experiment: protein stability index of a GFP-peptide fusion (GPS, HEK-293T) (PSI 1-6); higher = more stable
[1] = treatment: DMSO, c terminus: a fixed tail appended
[2] = treatment: MLN4924 1 uM, 8 h, c terminus: a fixed tail appended
[3] = treatment: DMSO, c terminus: native
[4] = treatment: MLN4924 1 uM, 8 h, c terminus: native
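Note: 24-mer peptide tiles fused after GFP, lentivirally expressed, FACS-sorted into six equal bins by GFP/DsRed ratio, decoded by Illumina sequencing, PSI is the read-weighted mean bin number.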

Row | Sequence | protein stability index [1] | protein stability index [2] | protein stability index [3] | protein stability index [4]
1 | AACLLQLKGVKQACCEFLESQLDP [KLHL12] | 2.97 ± 0.45 | 2.88 ± 0.33 | – | –
2 | AADRHINFCKEQAARISNKGKFST [ZC2HC1A] | 2.57 ± 0.28 | 2.85 ± 0.14 | – | –
3 | AAEVGTGQYATTKGISQTNLITTV [EPB41L3] | 3.54 ± 0.13 | 3.5 ± 0.41 | – | –
4 | AAFVRAQADLLAHLVPEPDRLEEQ [DNAAF3] | 4.05 ± 0.13 | 4.12 ± 0.29 | – | –
5 | AAGIGKLSTADGKAFADPEVLRRL [ANKRD17] | 4.2 ± 0.15 | 4.19 ± 0.41 | – | –
6 | AAGVDHVILAVSYMSQVLEKEMKA [GMPPB] | 2.25 ± 0.62 | 2.44 ± 0.23 | – | –
7 | AALCLEVTLKTAVDGPDLEMLTGQ [FKBP8] | 2.47 ± 0.38 | 2.49 ± 0.091 | – | –
8 | ACGGLDNKCSVYPLTFDKNENMAA [GNB5] | 3.69 ± 0.093 | 3.43 ± 0.41 | – | –
9 | ACTRSLLGDPPPLLTLPRPPLSGA [HDAC6] | 3.44 ± 0.37 | 3.58 ± 0.26 | – | –
10 | ADQTVLTEDEKKELENLAAMDLEL [CHGB] | 5.6 ± 0.28 | 5.61 ± 0.16 | – | –
11 | ADRIIEVDMECQTDAFLDRPPTPL [RSPH3] | 4.3 ± 0.29 | 4.25 ± 0.28 | – | –
12 | ADSETPTIQKGSYTFVPWLLSFKR [TNFSF13B] | 2.52 ± 0.28 | 2.58 ± 0.26 | – | –
13 | ADWWQEPDAKGDEAEAEPEPELA [P3H4] | – | – | 5.67 ± 0.21 | 5.42 ± 0.31
14 | AEEAEILHSACGLSKDHQEVETEG [TOR1AIP2] | 5.45 ± 0.33 | 5.72 ± 0.24 | – | –
15 | AEKIEYNESMKAYHNSPAYLAYIN [SMARCE1] | 3.31 ± 0.5 | 3.46 ± 0.31 | – | –
16 | AEMLGSVVGNWQYFFPVIFSKASD [MAGEA6] | 2.37 ± 0.31 | 2.31 ± 0.31 | – | –
17 | AEMLRFGDRMFYRDWWNSTSFSNY [SOAT2] | 2.28 ± 0.52 | 2.02 ± 0.041 | – | –
18 | AFEESKIDEHHFVAVALRKPDGSR [AASDHPPT] | 4.01 ± 0.52 | 4.2 ± 0.53 | – | –
19 | AFFASHQCSNRIGSMKIKSSWDID [FBXO34] | 2.46 ± 0.15 | 2.42 ± 0.17 | – | –
20 | AFGNPKFALQGLPLNCAPCPRRSE [IRX6] | 4.202 ± 0.038 | 4.08 ± 0.13 | – | –
21 | AFNFLLVWYYCTLTIRESILINNG [TMEM120A] | 2.87 ± 0.055 | 3.15 ± 0.51 | – | –
22 | AFTMEQVRTLEGVFQHHQYLSPLE [VENTX] | 2.83 ± 0.16 | 2.28 ± 0.23 | – | –
23 | AGAGGSGSRISVSRSTSFRGGMGS [KRT18] | 3.88 ± 0.21 | 3.79 ± 0.28 | – | –

Row | Sequence | protein stability index [1] | protein stability index [2] | protein stability index [3] | protein stability index [4]
24 | AGKEAMTSDGYTALHLAARNGHLA [RIPK4] | 3.43 ± 0.69 | 3.85 ± 0.36 | – | –
25 | AGLCMDSPSPMDPHMAEQTFEQAI [CDC25B] | 4.5 ± 0.47 | 4.6 ± 0.15 | – | –
26 | AGSHQYPGRGVYLLKFDNSYSLWR [ACBD3] | 2.43 ± 0.25 | 2.22 ± 0.29 | – | –
27 | AGYRLGPAQPGADSSFPPALAEGY [TBX6] | 3.45 ± 0.38 | 3.62 ± 0.23 | – | –
28 | AHLAAEVEGKCLQSGFEMLKDVKS [TRIM39] | 4.17 ± 0.22 | 4.62 ± 0.28 | – | –
29 | AIDLNKKGKDNKHPMYRRLVHSAV [ZMYND11] | 2.46 ± 0.41 | 2.92 ± 0.38 | – | –
30 | AIPTKKSLPSPSSSGHQNRRFSSE [FBF1] | 4.82 ± 0.27 | 4.9 ± 0.15 | – | –
31 | AISSPTVSRLTDTTKFTGSHKERF [TPPP] | 4.17 ± 0.26 | 4.29 ± 0.12 | – | –
32 | AKDEDQWTALHFAAQNGDESSTRL [RIPK4] | 4.54 ± 0.95 | 5.086 ± 0.023 | – | –
33 | AKGASLFTCDLQHTETGEEVLRMC [VPS39] | 3.69 ± 0.055 | 3.73 ± 0.33 | – | –
34 | AKLALYPCASLLAFASTCLLSRFS [TMEM175] | 2.45 ± 0.49 | 2.52 ± 0.52 | – | –
35 | AKSVLKERGLKKIRLGIEGYPTYK [BTBD10] | 2.79 ± 0.23 | 2.8 ± 0.44 | – | –
36 | ALLITLIVVATLPIPVVFVLRHFH [SLC6A17] | 2.73 ± 0.52 | 2.33 ± 0.45 | – | –
37 | ANGSEIHKHVHFSSSFTSIASEWF [SLC22A15] | 2.44 ± 0.32 | 2.39 ± 0.36 | – | –
38 | APDKTSTVLTRHSQPATPTPLQSR [PDLIM7] | 4.68 ± 0.17 | 4.82 ± 0.23 | – | –
39 | APHQQPPAPPSDALLDLHFPSDHL [TFE3] | 4.65 ± 0.087 | 4.77 ± 0.057 | – | –
40 | APVAEAWIPQAGPPELNYGATGEC [ZNF449] | 4.78 ± 0.12 | 4.88 ± 0.33 | – | –
41 | AQRVRAAMFPETLDEGMQIPSTQF [CTNNB1] | 3.62 ± 0.23 | 3.65 ± 0.16 | – | –
42 | AQVRKLELERAQHELLLGSLQQQH [FBF1] | 3.62 ± 0.18 | 3.71 ± 0.17 | – | –
43 | ARFGSGPCKTRDDEPVCGRPLGIR [APMAP] | 3.75 ± 0.28 | 3.87 ± 0.35 | – | –
44 | ARLTYSIVGNQVQGAPASSFVYVN [PCDHGC5] | 2.38 ± 0.39 | 2.19 ± 0.26 | – | –
45 | ARLVFVPLLLLCNIKPRRYLTVVF [SLC29A1] | 2.92 ± 0.51 | 2.91 ± 0.87 | – | –
46 | ARMLREYQELMSLKLALDMEIATY [KRT71] | 2.19 ± 0.62 | 2.44 ± 0.21 | – | –

Row | Sequence | protein stability index [1] | protein stability index [2] | protein stability index [3] | protein stability index [4]
47 | ARTQMILLRRSVEGASSDNGCEVK [PHTF1] | 3.68 ± 0.24 | 3.98 ± 0.2 | – | –
48 | ASIHWDWKIALLFVAFALCMFCLY [SLC35F2] | 2.17 ± 0.36 | 2.26 ± 0.24 | – | –
49 | ASPMSADRVVAFMDHIRIFQEQVE [NR2F2] | 2.8 ± 0.44 | 3.1 ± 0.29 | – | –
50 | ASTVTEIVKQQDPLVYKAIQQGIN [ACSBG2] | 3.49 ± 0.3 | 3.96 ± 0.35 | – | –
51 | ATIENNRVILEIDNARLAVDDFRL [KRT13] | 2.15 ± 0.16 | 2.31 ± 0.35 | – | –
52 | ATSLFVELDEEEVKAATTEPTEVE [BCL2L13] | 5.48 ± 0.4 | 5.62 ± 0.12 | – | –
53 | ATTIDNSRVILEIDNARLAADDFR [KRT15] | 3.7 ± 0.31 | 3.74 ± 0.3 | – | –
54 | AVAVDVAVPKRLLEIVGREGVSLT [HAGHL] | 2.84 ± 0.23 | 2.84 ± 0.19 | – | –
55 | AVEISDHPGEHEVGEPEFHYIAGA [CPXM2] | 4.82 ± 0.57 | 5.17 ± 0.32 | – | –
56 | AVGYQPEYSKFCRMSYQDPAQLSC [NFE2L1] | 2.63 ± 0.41 | 2.2 ± 0.44 | – | –
57 | AVLASCSQYFRSLFSSHPPLGGGV [KLHL14] | 2.4 ± 0.37 | 2.22 ± 0.22 | – | –
58 | AVMEHAESKMYATSPYSDPVVSMD [PTPRD] | 4.3 ± 0.36 | 4.24 ± 0.53 | – | –
59 | CCEVETIRRAYPDANLLNDRVLRA [CCND1] | 2.86 ± 0.42 | 2.95 ± 0.23 | – | –
60 | CFSVSMLAGPNDRSDVEKGGKIIM [UFD1] | 2.92 ± 0.48 | 3.2 ± 0.52 | – | –
61 | CILVEMHTGEPLFSGSNEVDQMNR [DYRK1B] | 2.58 ± 0.07 | 2.58 ± 0.22 | – | –
62 | CKIRIQRQLEIMGKEVSGDQIEDM [STX11] | 4.01 ± 0.2 | 3.94 ± 0.12 | – | –
63 | CKLILSLEPDEDPLCMLLLIDHLA [TCF25] | 2.82 ± 0.53 | 2.95 ± 0.79 | – | –
64 | CKVDCEANLTPNVGGYFVDKFVAT [P3H4] | 2.84 ± 0.23 | 2.55 ± 0.29 | – | –
65 | CLRILMGELSNHHDHHDEFCLMP [BEX3] | – | – | 2.58 ± 0.69 | 2.27 ± 0.15
66 | CLRRCKRTLPAFQVPYPPRQLLRD [P3H4] | 2.16 ± 0.24 | 2.27 ± 0.24 | – | –
67 | CLVCQASFCELHLKPHLEGAAFRD [TRIM29] | 3.68 ± 0.32 | 3.67 ± 0.43 | – | –
68 | CMVCKKKIGNSAFARYPNGVVVHY [VPS39] | 2.37 ± 0.17 | 2.51 ± 0.41 | – | –
69 | CPQCGKCFARKSQLTGHQRIHSGE [ZNF449] | 5.1 ± 0.3 | 5.16 ± 0.087 | – | –

Row | Sequence | protein stability index [1] | protein stability index [2] | protein stability index [3] | protein stability index [4]
70 | CRLDYRRPENRSFYLALYKQMSFL [TCF25] | 2.33 ± 0.6 | 2.28 ± 0.66 | – | –
71 | CRYLNFTKGEEISVYVKLAGERED [MIA2] | 2.52 ± 0.26 | 2.77 ± 0.22 | – | –
72 | CSLDKRVILIFHCEFSSERGPRMC [CDC25B] | 2.28 ± 0.63 | 2.54 ± 0.83 | – | –
73 | CSRTTGYQILTLEKDQEQVVMNLD [GMCL1] | 3.6 ± 0.52 | 3.43 ± 0.34 | – | –
74 | CTDKENALKLFPVQPCSAVHLLLK [FAM189A2] | 2.58 ± 0.23 | 2.7 ± 0.43 | – | –
75 | CTGITRLQRWCRAKHMGLEPPPEV [POLD4] | 2.49 ± 0.31 | 2.96 ± 0.31 | – | –
76 | CTLETTVHASGWNKILVPLVLLRQ [BCL2L13] | 2.61 ± 0.38 | 2.38 ± 0.43 | – | –
77 | CVLTTPCLTQSTAAPAVRASSSPV [SLA] | 3.47 ± 0.13 | 3.49 ± 0.14 | – | –
78 | CVNGDVDKPSEPASEEGSESEGSE [SMG5] | 5.58 ± 0.23 | 5.51 ± 0.14 | – | –
79 | DAMQLNDKWQGLCWPMMDFLRCVT [CMTM3] | 2.22 ± 0.38 | 2.26 ± 0.14 | – | –
80 | DEEVQRKREMILKRKEEEALKDSL [VDR] | 5.35 ± 0.22 | 5.5 ± 0.19 | – | –
81 | DEGASAGQGPKPEADSQEQGHPQT [GAGE1] | 5.71 ± 0.1 | 5.48 ± 0.37 | – | –
82 | DEKYGVPSLEELGFDTDGLSSAVW [CRY1] | 3.65 ± 0.22 | 3.86 ± 0.45 | – | –
83 | DFPEEDDPTNWLRCYYYEDTISTI [NCF4] | 3.28 ± 0.25 | 3.2 ± 0.22 | – | –
84 | DGGLLSGNEKITMQNLNDRLASYL [KRT15] | 3.12 ± 0.16 | 3.09 ± 0.2 | – | –
85 | DGLFDNMPDYMILQELKKLKNSNY [PPTC7] | 2.57 ± 0.3 | 2.85 ± 0.64 | – | –
86 | DHEHEEADLELSLPECLEYEEEFD [GNAS] | 5.55 ± 0.46 | 5.53 ± 0.22 | – | –
87 | DHGVPEHPTPFLAFLRRVKTCNPP [PTPRD] | 3.16 ± 0.042 | 3.16 ± 0.25 | – | –
88 | DHYQRVKREREKEDIALNKHRSRR [RHOBTB1] | 4.23 ± 0.25 | 4.38 ± 0.21 | – | –
89 | DIALNKHRSRRKWCFWNSSPAVA [RHOBTB1] | – | – | 2.46 ± 1.4 | 2.87 ± 1.8
